Data set [1] relates to db/db mice. In words: Blood glucose of db/db mice after injection of test substance. It is filed as in vivo, mouse. Particulars: for effect of pre-treatment on the anti-diabetic effect of nesfatin-1: GW9662 0.45 μg/g i.v. or Compound C 20 mg/kg i.p. before 100 ug Nesfatin-1 i.v., blood glucose in 6 hours; for effect of pre-injection on the anti-hyperglycemic effect of rPladin: GW9662 0.45 ug/g i.v., rosiglitazone or Compound C 20 ug/g i.p., then 10 nmol rPladin i.v., 3 hours. On the procedure:
GW9662, a PPAR-gamma irreversible inhibitor, was i.v. injected into the tail vein of db/db mice at the dose of 0.45 μg per gram body weight. After 30 minutes, 100 ug Nesfatin-1 was injected into the tail vein of db/db mice. Blood glucose was measured in 6 hours.
Compound C, a 5′-AMP-activated protein kinase (AMPK) specific inhibitor, was intraperitoneally injected to db/db mice at the dose of 20 mg per kg body weight. Subsequently, 100 ug Nesfatin-1 was injected into the tail vein of db/db mice. Blood glucose was measured in 6 hours.
Without anesthesia, mice were placed into a restricting tube. The testing substance such as nesfatin-1 or rPladin was i.v. injected via mice tail vein with a total volume of 150 μL. After that mice were returned to the cages with food and water available freely. In the i.p. injection experiment, mice without anesthesia were injected with the testing substances directly into the peritoneal with a total volume of 200 μL.
db/db mice of 16 to 18 weeks old were i.v. injected with 0.45 ug/g of GW9662 (Sigma, St. Louis, Mo.), i.p. injected with 20 ug/g rosiglitazone (Sigma, St. Louis, Mo.) or 20 ug/g Compound C (Sigma, St. Louis, Mo.), and then randomly assigned to receive the i.v. injection of 10 nmol rPladin or the same volume of saline as the control. Blood glucose was measured at 3 hours after the injection using the glucose meter (Roche, Indianapolis, Ind.).

Data set [2] concerns db/db mice. The data set is described as above. It is filed as in vivo, mouse. The settings on record: for anti-hyperglycemic effect (blood glucose): peripheral/i.v. injection, db/db, dose not stated; for active duration of anti-hyperglycemic effect in vivo: i.v. injection, hyperglycemic db/db mice.
Data set [3] relates to db/db mice. Description: Food intake and body weight of db/db mice. The settings on record: i.v. plasmin inhibitor to db/db (AMCA 15 mg/day once daily for three days). It is filed as in vivo, mouse.
Data set [4] deals with db/db mice. In words: Serum nesfatin-1 / pladin in db/db after i.v. plasmin inhibitor (HPLC). It is filed as in vivo, mouse. The settings on record: 30 minutes after i.v. injection. On the procedure: Hypothalamus in acetic acid supplemented with protease inhibitor cocktail tablets (Roche, Indianapolis, Ind.) was homogenized, sonicated and heated at 95° C. for 15 minutes. The samples were then centrifuged at 13,200 rpm at 4° C. for 30 minutes. The supernatants were finally collected as their protein contents were determined by the Bradford assay (Thermo-Fisher Sci. Rockford, Ill.). Mouse serum was freshly prepared by drawing blood through ophthalmectomy. About […] hypothalamic total proteins or 25 μL serum were analyzed with Waters Delta 600E/2487/717 HPLC system using an analytical C18 reverse phase column (4.6×250 mm/5 μm, Hambon, Zhangjiagang, CN). Nesfatin-1 was eluted with a linear gradient from 20%-40% solvent B (solvent A: water with 0.1% trifluoroacetic acid, solvent B: acetonitrile with 0.1% trifluoroacetic acid) for 20 minutes at the flow rate of 1 ml/minute. The purified nesfatin-1 was used as the standard to determine the retention time and plot the standard curve. The fraction collected at the retention time was sent for the mass spectrometry analysis.
Mouse serum was freshly prepared by drawing blood through ophthalmectomy. The sera of plg^−/−lepr^−/− and db/db mice were directly analyzed with Waters Delta 600E/2487/717 HPLC System using a C18 reverse phase column (4.6×250 mm, 5 μm, Hambon, Zhangjiagang, CN) and eluted with a linear gradient from 20%-40% acetonitrile in 0.1% TFA for 20 minutes at the flow rate of 1 ml/minute (Enriori et al., 2007). Compared with db/db mice, the divergent fractions eluted in plg^−/−lepr^−/− mice were collected for the determination of molecular weight using the Applied Biosystems 4800 Proteomics Analyzer (Applied Biosystems). The MS spectra were acquired in the liner mode at a range of peptide mass from 3,000 to 20,000 Dalton.

The next data set concerns the target plasmin (Homo sapiens, UniProt P00747). In words: Incubation with plasmin in vitro (proteolysis). It is filed as biochemical. Particulars: incubated with plasmin in vitro. From the text:
The recovery of hypothalamic nesfatin-1 in plg^−/−lepr^−/− was consistent to its normalization in food intake and body weight. Fasted mice always had less nesfatin-1 in hypothalamus than their freely feeding counterparties (FIG. 2b). Furthermore, plasminogen deficiency provided a unique approach to study the chronic effect of elevated nesfatin-1 in hyperphagic obese animals, which was impossible for the i.c.v. or i.p. administration due to the short half-time of nesfatin-1. Consequently, agrp and npy were found reduced in plg^−/−lepr^−/−, while pomc was elevated compared with plg^+/+lepr^−/− (FIG. 3), contradicting to the previous report that i.c.v. nesfatin-1 didn't alter the expression of pomc, npy and agrp. Consistent to the present finding, the same group reported the up-regulation of pomc by i.p. nesfatin-1 in NTS recently.
Carefully examining the amino acid sequence of pladin (SEQ ID NO: 23), it has several putative cleavage sites by plasmin (FIG. 11A).

Changes are numbered by the printed parent chain. Entries after “also recorded” stand apart in the source; their conditions may differ.

Sequence of plasmin (P00747 581-810 limits assumed, species assumed): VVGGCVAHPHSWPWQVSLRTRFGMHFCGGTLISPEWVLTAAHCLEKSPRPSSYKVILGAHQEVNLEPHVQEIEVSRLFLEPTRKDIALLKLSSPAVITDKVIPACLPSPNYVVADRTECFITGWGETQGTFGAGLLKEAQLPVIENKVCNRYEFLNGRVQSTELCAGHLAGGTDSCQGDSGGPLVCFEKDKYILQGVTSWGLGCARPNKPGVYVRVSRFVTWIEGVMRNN
Sequence of plasmin (P00747 97-580 partner limits assumed, species assumed): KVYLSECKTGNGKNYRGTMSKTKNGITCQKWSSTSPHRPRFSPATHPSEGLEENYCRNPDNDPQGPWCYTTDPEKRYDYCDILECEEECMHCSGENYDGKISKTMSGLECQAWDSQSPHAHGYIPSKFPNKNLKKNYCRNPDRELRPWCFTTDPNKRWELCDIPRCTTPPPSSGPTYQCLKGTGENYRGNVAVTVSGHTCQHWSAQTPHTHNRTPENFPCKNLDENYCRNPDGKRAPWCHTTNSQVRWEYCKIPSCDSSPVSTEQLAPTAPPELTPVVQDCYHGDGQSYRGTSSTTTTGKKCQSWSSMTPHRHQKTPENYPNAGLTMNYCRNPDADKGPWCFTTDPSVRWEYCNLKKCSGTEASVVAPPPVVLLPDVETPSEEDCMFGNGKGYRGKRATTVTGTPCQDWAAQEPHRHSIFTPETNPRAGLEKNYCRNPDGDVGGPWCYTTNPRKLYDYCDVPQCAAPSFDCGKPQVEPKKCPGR

Turning to `O=C(Nc1ccccc1)c1cc([N+](=O)[O-])ccc1Cl` [GW9662], in the data set on db/db mice [1], the “effect of pre-treatment on the anti-diabetic effect of nesfatin-1” value was “fully inhibited” and the “effect of pre-injection on the anti-hyperglycemic effect of rPladin” value is “abolished; also recorded: prevented”.

Consider “ADIEEIRSGR LSQELDLVSH (ADIEEIRSGRLSQELDLVSH; A synthetic peptide which was the C-terminal portion of pladin) [SEQ ID NO:22, synthetic 20 amino acids peptide, C-terminal portion of pladin]”, for which, in the data set with db/db mice [2] (i.v., db/db mice), the “anti-hyperglycemic activity, fold less than rPladin” value is “more than 3 fold”. Also, the “anti-hyperglycemic effect (blood glucose)” value in the data set with db/db mice [2] is “anti-hyperglycemic”.

Consider “ANAEDIKSGKLSQELDFVSH (amino acids by MALDI-TOF/TOF with Trypsic Peptides) [SEQ ID NO:24, synthetic 20 amino acids peptide, a portion of NUCB1]”, for which, in the data set with db/db mice [2], the “anti-hyperglycemic effect (blood glucose)” value was “anti-hyperglycemic”.

As to `c1cc(-c2cnn3cc(-c4ccc(OCCN5CCCCC5)cc4)cnc23)ccn1` [Compound C], in the data set with db/db mice [1], the “effect of pre-treatment on the anti-diabetic effect of nesfatin-1” value is recorded as “fully inhibited” and the “effect of pre-injection on the anti-hyperglycemic effect of rPladin” value is “abolished; also recorded: prevented”.

Consider aprotinin, for which, in the data set on db/db mice [3], the body weight entry is “reduction” and the food intake result is given as “reduction”. The “circulating (serum) nesfatin-1” value with db/db mice [4] is “increased”.

B1: A4: pladin mutant A4 (Lys28→Ala) (protein)
peptide: TKVHNTEPVENARIEPPDTGLYYDEYLAQVIEVLETDPHFREKLQKADIEEIRSGRLSQELDLVSHKVR
On to B1, for which the proteolysis by plasmin result with plasmin is listed as “resistant to plasmin proteolysis”. Moreover, the “active duration of anti-hyperglycemic effect in vivo” value (“active duration … in vivo” below) in the data set with db/db mice [2] was 18 h.

B2: A5: pladin mutant A5 (Lys13→Ala as printed; Arg13 in sequence) (protein)
peptide: B1 peptide with R13A, A28K
Turning to B2, the proteolysis by plasmin result with plasmin is “resistant to plasmin proteolysis”. Besides, the “active duration … in vivo” value in the data set on db/db mice [2] amounted to 12 h.

B3: acetylated rPladin: rPladin acetylated with N-acetylimidazole; three Tyr and three Lys residues modified (protein)
peptide: B1 peptide with A28K
modifications: also: three Tyr and three Lys acetylated with N-acetylimidazole
notes: rPladin acetylated with N-acetylimidazole; three Tyr and three Lys residues modified
As to B3, the proteolysis by plasmin result in the data set with plasmin is on record as “resistant to the proteolysis by plasmin”. The “active duration … in vivo” value in the data set on db/db mice [2] was determined as 12 h. Moreover, in the data set on db/db mice [2] (i.v., db/db mice), the “anti-hyperglycemic activity compared with reference peptide” value is “unchanged”.

B4: TKVHNTEPVENARIEPPDTGLYYDEYAKAAAAALETDPHFREKLQKADIEEIRSGRLSQELDLVSHKVR (protein)
chain: B1 peptide with L27A, A28K, Q29A, V30A, I31A, E32A, V33A
modifications: amino acid sequence of Mutant A90
Consider B4, for which, in the data set on db/db mice [2], the “active duration … in vivo” value is more than 24 h.

B5: TKVHNTEPVENARIEPPDTGLYYDEYAALETDPHFREKLQKADIEEIRSGRLSQELDLVSHKVR (protein)
chain: TKVHNTEPVENARIEPPDTGLYYDEYAALETDPHFREKLQKADIEEIRSGRLSQELDLVSHKVR
modifications: amino acid sequence of Mutant A92
As to B5, the “active duration … in vivo” value in the data set on db/db mice [2] was more than 12 h.

B6: TKVHNTEPVENARIEPPDTGLYYDEYSAAAALETDPHFREKLQKADIEEIRSGRLSQELDLVSHKVR (protein)
chain: TKVHNTEPVENARIEPPDTGLYYDEYSAAAALETDPHFREKLQKADIEEIRSGRLSQELDLVSHKVR
modifications: amino acid sequence of Mutant A91
In the case of B6, the “active duration … in vivo” value in the data set on db/db mice [2] is more than 24 h.

B7: VPVDRAAPPQEDSQATETPDTGLYYHRYLQEVINVLETDGHFREKLQAANAEDIKSGKLSQELDFVSHNVRTKLDELK (protein)
chain: VPVDRAAPPQEDSQATETPDTGLYYHRYLQEVINVLETDGHFREKLQAANAEDIKSGKLSQELDFVSHNVRTKLDELK
modifications: amino acids recombinant peptide of NUCB1
notes: 78 amino acids recombinant peptide, N-terminal portion of NUCB1
Turning to B7, in the data set on db/db mice [2] (i.v., db/db mice, within 3 hours), the “molar anti-hyperglycemic activity, fold higher than rPladin or nesfatin-1” value is “at least 2 fold”. The “active duration, fold less than rPladin or nesfatin-1” value in the data set on db/db mice [2] (in vivo) is recorded as “at least 2 fold”. Further, the “anti-hyperglycemic effect (blood glucose)” value in the data set on db/db mice [2] was “anti-hyperglycemic”.

For the origin of these results see patent US8541367B2, “Plasma anti-diabetic NUCB2 peptide (pladin) and uses thereof” (Landing Biotech, Inc., priority 2009, dated 2013).
